Assay results taken from patent US20240124545A1, “COMPOSITIONS AND METHODS RELATING TO THE TREATMENT OF DISEASES” (ILC THERAPEUTICS LIMITED, priority 2021, published 2024).
“And” between values parts separate entries of the source, which are not always exact repeats. Equal values may be shown once. Read-outs that look alike come from different tables or passages of the source.

Key:
[1] = test system: HeLa-CD4-βgal cells; experiment: XTT viability (cytotoxicity) assay, uninfected HeLa-CD4-βgal cells (Experiment 5); conditions: 10 μM
[2] = test system: HeLa-CD4-βgal cells
[3] = test system: HeLa-CD4-βgal cells; experiment: XTT viability (cytotoxicity) assay, uninfected HeLa-CD4-βgal cells (Experiment 4); conditions: 1 μM; 48 hours
[4] = test system: HEp-2 cells; experiment: XTT viability (cytotoxicity) assay, uninfected HEp-2 cells; conditions: 1 μM; 72 hours
[5] = test system: HIV-1 LAI; experiment: HIV-1 LAI infectivity assay with β-galactosidase readout (Experiment 5); type: cell-based, human immunodeficiency virus type 1 (HIV-1) LAI strain; conditions: for HIV-1 Infectivity in HeLa-CD4-βgal cells (% vehicle): mean of duplicates; for HIV Infectivity in HeLa CD4 βgal cells (β-galactosidase units): individual values
[6] = test system: SARS-CoV-1; type: cell-based
[7] = test system: SK-OV-3 NucLight Red cells co-cultured with natural killer (NK) cells; experiment: Live cell imaging assay of immune cell killing (IncuCyte ZOOM); type: cell-based
Description: The effect of a hybrid recombinant interferon was tested in a live cell imaging assay of immune cell killing on an IncuCyte ZOOM platform. SK-OV-3 ovarian cancer cells with red labelled nuclei (SK-OV-3 NucLight Red) were used as target cells in the study. For immune cell killing, the cells were co-cultured with natural killer (NK) cells and positive controls consisted of cells treated with IL-2 and IL-12. Apoptosis was detected by staining caspase 3/7 positive objects while cell number was determined by counting of red nuclei. […] An initial optimisation experiment was carried out that tested 4 ratios of target and effector cells. […] Results were compared to no treatment controls, vehicle treated controls and IL-2/IL-12 treated cells. All conditions were tested using cells in co-culture (SK-OV-3 NucLight and NK cells) and mono-culture (SK-OV-3 NucLight Red). Cells were monitored for 4 days using an IncuCyte ZOOM, and IncuCyte software was used to measure green (apoptosis) and red (cell number) object count over time. Area under the curve (AUC) analysis was used to quantitate apoptosis and cell number over the time course.

[8] = test system: HRSV Long strain; experiment: HRSV infectivity assay, immunostaining readout in HEp-2 cells; type: cell-based, human respiratory syncytial virus (HRSV) Long strain; conditions: for HRSV Infectivity in HEp-2 cells (% vehicle): 72 hours, average of duplicates; for HRSV Infectivity in HEp-2 cells - Raw OD- Absorbance (490 nm): duplicate A490 values
[9] = test system: HeLa-CD4-βgal cells; remark: listed apart in the source
[10] = test system: HIV-1 LAI; conditions: for HIV Infectivity in HeLa-CD4-βgal cells (% vehicle): 48 hours
[11] = test system: human RSV; experiment: Plaque assay with human RSV (FIG. 9); type: cell-based
[12] = test system: Herpes Simplex Virus Type 1 (HSV1); experiment: HSV1 infection of primary human keratinocytes; type: cell-based
[13] = test system: SARS-CoV-1; type: cell-based, SARS-HCoV2003VA2774; conditions: Vero E6 cells
[14] = test system: IL 17F; experiment: Suppression of IL-17F; type: cell-based; conditions: listed as Hybrid 2
[15] = test system: IL-17A; experiment: Suppression of IL-17A synthesis; type: cell-based
[16] = test system: natural killer cells; experiment: NK cell monoculture model (cell clustering); type: cell-based
[17] = test system: HEp-2 cells

In the case of `CC[C@H]1CN2CCc3cc(OC)c(OC)cc3[C@@H]2C[C@@H]1C[C@H]1NCCc2cc(OC)c(OC)cc21` [Emetine], the “Viability of Uninfected HeLa-CD4-β gal Cells (% vehicle alone), controls” value ([1]; 48 hours) is reported as 5.6 ± 0.7 % vehicle alone, the “Viability (A490), controls, HeLa-CD4-βgal cells” value ([1]; raw absorbance 490 nm) is reported as 0.213 and 0.203 and the “inhibition by viability control in XTT cytotoxicity assays” value ([2]; human) is reported as “greater than 85%”. The “inhibition of cell viability by cytotoxic compound control” value ([2]; human) was “greater than 90%”, the “Viability of HeLa-CD4-βgal cells in the XTT assay (percentage values), controls” value [3] was 10.0 ± 1.7% and the “HEp-2 viability in the XTT assay (percentage values), controls” value [4] was 6.8 ± 1.1 % vehicle.

B1: Sample B: recombinant IFN-α10-IFN-α14 hybrid interferon alpha, amino acid sequence SEQ ID NO:3; sample B in Experiments 4 and 5 (protein)
chain: CDLPQTHSLGNRRALILLGQMGRISPFSCLKDRHDFRIPQEEFDGNQFQKAQAISVLHEMMQQTFNLFSTKNSSAAWDETLLEKFYIELFQQMNDLEACVIQEVGVEETPLMNEDSILAVKKYFQRITLYLIERKYSPCAWEVVRAEIMRSLSFSTNLQKRLRRKD
With B1 the “HIV-1 Infectivity in HeLa-CD4-βgal cells (% vehicle)” value (from here on “HIV-1 Infectivity … (% vehicle)”) ([5]; 0.0001 ng/mL, 48 hours) was 102.4 % vehicle, the “HIV Infectivity in HeLa CD4 βgal cells (β-galactosidase units)” value (from here on “HIV Infectivity in HeLa CD4 βgal cells”) ([5]; 0.0001 ng/mL) was 971,384 RLU and 1,112,752 RLU and the “HIV-1 Infectivity … (% vehicle)” value ([5]; 0.001 ng/mL, 48 hours) was 96.3 % vehicle. For the same molecule, the “HIV Infectivity in HeLa CD4 βgal cells” value ([5]; 0.001 ng/mL) was 1,062,736 RLU and 896,209 RLU, the “HIV-1 Infectivity … (% vehicle)” value ([5]; 0.01 ng/mL, 48 hours) was 77.7 % vehicle and the “HIV Infectivity in HeLa CD4 βgal cells” value ([5]; 0.01 ng/mL) was 761,455 RLU and 820,758 RLU. For the same molecule, the “HIV-1 Infectivity … (% vehicle)” value ([5]; 0.1 ng/mL, 48 hours) was 58.0 % vehicle, the “HIV Infectivity in HeLa CD4 βgal cells” value ([5]; 0.1 ng/mL) was 588,618 RLU and 595,007 RLU and the “HIV-1 Infectivity … (% vehicle)” value ([5]; 1 ng/mL, 48 hours) was 36.0 % vehicle. The “HIV Infectivity in HeLa CD4 βgal cells” value ([5]; 1.0 ng/mL) was 343,482 RLU and 394,833 RLU, the “HIV-1 Infectivity … (% vehicle)” value ([5]; 10 ng/mL, 48 hours) was 30.2 % vehicle and the “HIV Infectivity in HeLa CD4 βgal cells” value ([5]; 10 ng/mL) was 302,405 RLU and 317,823 RLU. The “HIV-1 Infectivity … (% vehicle)” value ([5]; 100 ng/mL, 48 hours) was 28.9 % vehicle, the “HIV Infectivity in HeLa CD4 βgal cells” value ([5]; 100 ng/mL) was 278,916 RLU and 314,495 RLU and the “HIV-1 Infectivity … (% vehicle)” value ([5]; 1,000 ng/mL, 48 hours) was 30.7 % vehicle. The “HIV Infectivity in HeLa CD4 βgal cells” value ([5]; 1,000 ng/mL) was 299,975 RLU and 330,705 RLU, the “HIV-1 Infectivity … (% vehicle)” value ([5]; 10,000 ng/mL, 48 hours) was 31.5 % vehicle and the “HIV Infectivity in HeLa CD4 βgal cells” value ([5]; 10,000 ng/mL) was 300,821 RLU and 344,654 RLU. The “IC50 (infectivity), HIV-1 Antiviral Assay (HeLa-CD4-Bgal cells)” value ([5]; HIV-1 LAI, 48 hours) was 0.03 ng/mL, the “infection signal still observed” value ([5]; highest concentrations tested (10 μg/mL)) was “about 25%” and the “inhibition of plaque formation following SARS-CoV-1 infection” value [6] was “inhibit the cytopathic effect and plaque formation”. For the same molecule, the “IC50 for the reduction in cell number” value [7] was 1.3×10^6 IU/ml, the “apoptosis response of cells in mono-culture” value ([7]; SK-OV-3 NucLight Red mono-culture) was “only a marginal response” and the “EC50 for apoptosis induction” value ([7]; co-culture model) was 1.5×10^6 IU/ml. For the same molecule, the “AUC of apoptosis (caspase 3/7 positive object count over time)” value ([7]; co-culture model, top dose (3×10^6 IU/ml), 4 days, vehicle controls 200) was 1174, the “AUC values for cell number (red nuclei count over time)” value ([7]; top dose, vehicle controls 39921) was 19501 and the “HRSV Infectivity in HEp-2 cells (% vehicle)” value (“HRSV Infectivity … (% vehicle)” for short) ([8]; 0.001 ng/mL) was 91.5 % vehicle. The “HRSV Infectivity in HEp-2 cells - Raw OD- Absorbance (490 nm)” value (shortened to “HRSV Infectivity in HEp-2 cells … (490 nm)”) ([8]; 0.001 ng/mL) was 0.647 and 0.675, the “HRSV Infectivity … (% vehicle)” value ([8]; 0.01 ng/mL) was 71.3 % vehicle and the “HRSV Infectivity in HEp-2 cells … (490 nm)” value ([8]; 0.01 ng/mL) was 0.550 and 0.573. The “HRSV Infectivity … (% vehicle)” value ([8]; 0.1 ng/mL) was 27.6 % vehicle, the “HRSV Infectivity in HEp-2 cells … (490 nm)” value ([8]; 0.1 ng/mL) was 0.353 and 0.338 and the “HRSV Infectivity … (% vehicle)” value ([8]; 1.0 ng/mL) was 9.7 % vehicle. For the same molecule, the “HRSV Infectivity in HEp-2 cells … (490 nm)” value ([8]; 1.0 ng/mL) was 0.244 and 0.270, the “HRSV Infectivity … (% vehicle)” value ([8]; 10 ng/mL) was 12.3 % vehicle and the “HRSV Infectivity in HEp-2 cells … (490 nm)” value ([8]; 10 ng/mL) was 0.248 and 0.292. For the same molecule, the “HRSV Infectivity … (% vehicle)” value ([8]; 100 ng/mL) was 11.9 % vehicle, the “HRSV Infectivity in HEp-2 cells … (490 nm)” value ([8]; 100 ng/mL) was 0.283 and 0.253 and the “HRSV Infectivity … (% vehicle)” value ([8]; 1,000 ng/mL) was 9.6 % vehicle. For the same molecule, the “HRSV Infectivity in HEp-2 cells … (490 nm)” value ([8]; 1,000 ng/mL) was 0.262 and 0.251, the “HRSV Infectivity … (% vehicle)” value ([8]; 10,000 ng/mL) was 6.6 % vehicle and the “HRSV Infectivity in HEp-2 cells … (490 nm)” value ([8]; 10,000 ng/mL) was 0.252 and 0.230. The “IC50 (infectivity), HRSV Antiviral Assay” value ([8]; HRSV Long, Hep-2 cells, 3 days) was 0.03 ng/mL and 0.027 ng/mL, the “CC50, Cytotoxicity Assay (HeLa-CD4-βgal cells)” value [2] was greater than 10000 ng/mL and the “CC50, Cytotoxicity Assay (uninfected HeLa-CD4-Bgal cells)” value [9] was greater than 10000 ng/mL. The “IC50 (infectivity), HIV-1 Antiviral Assay” value [10] was 0.009 ng/mL, the “HIV Infectivity in HeLa CD4 βgal cells” value ([10]; 0.0001 ng/mL) was 1,159,421 RLU and 1,143,347 RLU and the “HIV Infectivity in HeLa-CD4-βgal cells (% vehicle)” value (from here on “HIV Infectivity … (% vehicle)”) ([10]; 0.0001 ng/mL) was 101.4 % vehicle. The “HIV Infectivity … (% vehicle)” value ([10]; 0.001 ng/mL) was 91.9 % vehicle, the “HIV Infectivity in HeLa CD4 βgal cells” value ([10]; 0.01 ng/mL) was 729,428 RLU and 754,356 RLU and the “HIV Infectivity … (% vehicle)” value ([10]; 0.01 ng/mL) was 65.2 % vehicle. For the same molecule, the “HIV Infectivity in HeLa CD4 βgal cells” value ([10]; 0.1 ng/mL) was 505,696 RLU and 431,727 RLU, the “HIV Infectivity … (% vehicle)” value ([10]; 0.1 ng/mL) was 41.1 % vehicle and the “HIV Infectivity in HeLa CD4 βgal cells” value ([10]; 1.0 ng/mL) was 338,683 RLU and 353,822 RLU. For the same molecule, the “HIV Infectivity … (% vehicle)” value ([10]; 1.0 ng/mL) was 30.3 % vehicle, the “HIV Infectivity in HeLa CD4 βgal cells” value ([10]; 10 ng/mL) was 292,575 RLU and 343,225 RLU and the “HIV Infectivity … (% vehicle)” value ([10]; 10 ng/mL) was 27.8 % vehicle. The “HIV Infectivity in HeLa CD4 βgal cells” value ([10]; 100 ng/mL) was 289,671 RLU and 320,902 RLU, the “HIV Infectivity … (% vehicle)” value ([10]; 100 ng/mL) was 26.7 % vehicle and the “HIV Infectivity in HeLa CD4 βgal cells” value ([10]; 1,000 ng/mL) was 340,382 RLU and 330,715 RLU. For the same molecule, the “HIV Infectivity … (% vehicle)” value ([10]; 1,000 ng/mL) was 29.4 % vehicle, the “HIV Infectivity in HeLa CD4 βgal cells” value ([10]; 10,000 ng/mL) was 363,841 RLU and 344,014 RLU and the “HIV Infectivity … (% vehicle)” value ([10]; 10,000 ng/mL) was 31.0 % vehicle. For the same molecule, the “inhibition of a plaque assay with human RSV” value [11] was “inhibition of a plaque assay with human RSV”, the “effect on HSV1 infection” value [12] was “reduces Herpes Simplex Virus Type 1 (HSV1) infection” and the “inhibition of the cytopathic effect following SARS-CoV-1 infection” value [13] was “inhibit the cytopathic effect”. The “suppression of IL 17F” value [14] was “inhibits both 17 A and F very strongly”, the “suppression of IL-17A synthesis” value ([15]; listed as HYBRID 2) was “suppression of IL-17A synthesis” and the “suppression of IL-17A synthesis” value ([15]; listed as Hybrid 2) was “inhibits both 17 A and F very strongly”. The “direct activation of natural killer cells (cell clustering)” value [16] was “very strong direct activation of natural killer cells” and the “CC50, Cytotoxicity Assay (Hep-2 cells)” value [17] was greater than 10000 ng/mL.
